The values below come from PMC9845149, “Interplay between C1-inhibitor and group IIA secreted phospholipase A2 impairs their respective function” (Immunologic Research, 2022).

In the assay the target is T1, human plasma-derived C1-esterase inhibitor (human, UniProt P05155 23-500).
T1 construct: Glycoprotein from plasma; also called pdC1-INH; C1-INH; source: bought: Cinryze, Takeda Pharmaceutical Company (human plasma-derived); also in plasma of healthy donors (functional assay)
T1 sequence (looked up): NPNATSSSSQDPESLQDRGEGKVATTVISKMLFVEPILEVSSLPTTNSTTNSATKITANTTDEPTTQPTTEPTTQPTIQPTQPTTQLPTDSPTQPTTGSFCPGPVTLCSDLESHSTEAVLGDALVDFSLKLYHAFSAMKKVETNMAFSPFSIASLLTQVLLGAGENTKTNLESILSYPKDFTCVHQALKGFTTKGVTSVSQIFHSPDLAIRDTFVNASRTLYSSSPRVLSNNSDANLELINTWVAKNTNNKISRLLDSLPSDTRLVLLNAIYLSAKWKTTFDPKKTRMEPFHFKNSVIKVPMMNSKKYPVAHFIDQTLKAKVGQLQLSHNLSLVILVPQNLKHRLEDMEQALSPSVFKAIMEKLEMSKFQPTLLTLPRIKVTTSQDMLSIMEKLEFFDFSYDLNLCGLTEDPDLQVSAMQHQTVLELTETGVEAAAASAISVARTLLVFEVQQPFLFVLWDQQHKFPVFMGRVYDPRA
Description: SPR; Biacore 3000; hGIIA N1A immobilised at 800 RU on a CM5 chip (EDC/NHS), BSA as reference channel; C1-INH injected at 10, 20, 30, 40, 50 µM in HBS (10 mM Hepes, pH 7.4, 150 mM NaCl, 3 mM EDTA), 30 µL/min; 1:1 Langmuir model. The conditions noted are these: both partners purified.

B1: Recombinant human group IIA secreted phospholipase A2, N1A catalytically active mutant (enzyme, UniProt P14555 21-144, looked up)
chain: ALVNFHRMIKLTTGKEAALSYGFYGCHCGVGGRGSPKDATDRCCVTHDCCYKRLEKRGCGTKFLSYKFSNSGSRITCAKQDSCRSQLCECDKAAATCFARNKTTYNKKYQYYSNKHCRGSTPRC
notes: human group IIA secreted phospholipase A2 (hGIIA), UniProt P14555; N1A mutation facilitates the removal of the initiator methionine; PDB 1DCY chain A covers aa 1-124; also called hGIIA; hGIIA N1A
In turn, B1 showed a Kd of 6.7 µM and a koff of 0.0125 s⁻¹.

As usually defined, the Kd is the constant that tells how readily two partners part at equilibrium. A high value points to a looser complex. By koff is commonly meant the rate constant with which the complex falls apart. Read a low koff as slow dissociation.
